Laboratory results reported in US20230104769A1 (MABWELL SHANGHAI BIOSCIENCE, published 2023).

Target: T1, recombinant human PD-1 protein (NCBI accession No.: NP_005009.2, 21aa-167aa) (human, UniProt Q15116 21-167)
T1 construct: range 21-167; also called recombinant human PD-1 extracellular domain protein; PD-1-ECD
Assay: BLI Octet QKe, antibody on the sensor, single 100 nM PD-1
Procedure: Determination of the binding kinetics: the affinity of the antibody was determined with Octet QKe system from Fortebio using an assay of capturing biotin-labeled antibody with streptavidin. […] Both the binding and dissociating were conducted for 300 s.
The comparison of affinity between the variant antibodies and the parent antibody was performed using Octet QKe system supplied by Fortebio.

T1 sequence (Q15116 21-167 limits assumed, form in doubt): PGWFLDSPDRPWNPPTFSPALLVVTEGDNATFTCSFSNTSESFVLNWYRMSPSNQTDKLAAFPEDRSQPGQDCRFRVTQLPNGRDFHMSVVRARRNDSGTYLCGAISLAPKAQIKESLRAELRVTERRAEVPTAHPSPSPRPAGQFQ

| Binder | Kd |
| --- | --- |
| h317 variant antibody, heavy chain D33S (antibody, V domains shown, Variant of h317) VH: EVQLVESGGGLVKPGGSLRLSCAASGFTFSSYSMSWVRQAPGKGLEWVATISGGGSYTYYPDSVKGRFTISRDNAKNSLYLQMNSLRAEDTAVYYCASPDSSGVAYWGQGTLVTVSS VL: DIVMTQSPLSLPVTPGEPASITCKASQDVETVVAWYLQKPGQSPRLLIYWASTRHTGVPDRFSGSGSGTDFTLKISRVEAEDVGVYYCQQYSRYPWTFGQGTKL | 2.89 nM |
| h317 variant antibody, heavy chain G54D (antibody, V domains shown, Variant of h317) VH: EVQLVESGGGLVKPGGSLRLSCAASGFTFSSYDMSWVRQAPGKGLEWVATISGDGSYTYYPDSVKGRFTISRDNAKNSLYLQMNSLRAEDTAVYYCASPDSSGVAYWGQGTLVTVSS VL: DIVMTQSPLSLPVTPGEPASITCKASQDVETVVAWYLQKPGQSPRLLIYWASTRHTGVPDRFSGSGSGTDFTLKISRVEAEDVGVYYCQQYSRYPWTFGQGTKL | 29.3 nM |
| h317 variant antibody, heavy chain G53S (antibody, V domains shown, Variant of h317) VH: EVQLVESGGGLVKPGGSLRLSCAASGFTFSSYDMSWVRQAPGKGLEWVATISSGGSYTYYPDSVKGRFTISRDNAKNSLYLQMNSLRAEDTAVYYCASPDSSGVAYWGQGTLVTVSS VL: DIVMTQSPLSLPVTPGEPASITCKASQDVETVVAWYLQKPGQSPRLLIYWASTRHTGVPDRFSGSGSGTDFTLKISRVEAEDVGVYYCQQYSRYPWTFGQGTKL | 5.53 nM |
| h317 variant antibody, heavy chain G53Y (antibody, V domains shown, Variant of h317) VH: EVQLVESGGGLVKPGGSLRLSCAASGFTFSSYDMSWVRQAPGKGLEWVATISYGGSYTYYPDSVKGRFTISRDNAKNSLYLQMNSLRAEDTAVYYCASPDSSGVAYWGQGTLVTVSS VL: DIVMTQSPLSLPVTPGEPASITCKASQDVETVVAWYLQKPGQSPRLLIYWASTRHTGVPDRFSGSGSGTDFTLKISRVEAEDVGVYYCQQYSRYPWTFGQGTKL | 10.3 nM |
| h317 variant antibody, heavy chain D33S and G54S (antibody, V domains shown, Variant of h317; also called 33S(CDR1) 54S(CDR2)) VH: EVQLVESGGGLVKPGGSLRLSCAASGFTFSSYSMSWVRQAPGKGLEWVATISGSGSYTYYPDSVKGRFTISRDNAKNSLYLQMNSLRAEDTAVYYCASPDSSGVAYWGQGTLVTVSS VL: DIVMTQSPLSLPVTPGEPASITCKASQDVETVVAWYLQKPGQSPRLLIYWASTRHTGVPDRFSGSGSGTDFTLKISRVEAEDVGVYYCQQYSRYPWTFGQGTKL | 3.12 nM |
| h317 variant antibody, heavy chain D100Y (antibody, V domains shown, Variant of h317) VH: EVQLVESGGGLVKPGGSLRLSCAASGFTFSSYDMSWVRQAPGKGLEWVATISGGGSYTYYPDSVKGRFTISRDNAKNSLYLQMNSLRAEDTAVYYCASPYSSGVAYWGQGTLVTVSS VL: DIVMTQSPLSLPVTPGEPASITCKASQDVETVVAWYLQKPGQSPRLLIYWASTRHTGVPDRFSGSGSGTDFTLKISRVEAEDVGVYYCQQYSRYPWTFGQGTKL | 8.23 nM |
| h317 variant antibody, heavy chain D33Y (antibody, V domains shown, Variant of h317) VH: EVQLVESGGGLVKPGGSLRLSCAASGFTFSSYYMSWVRQAPGKGLEWVATISGGGSYTYYPDSVKGRFTISRDNAKNSLYLQMNSLRAEDTAVYYCASPDSSGVAYWGQGTLVTVSS VL: DIVMTQSPLSLPVTPGEPASITCKASQDVETVVAWYLQKPGQSPRLLIYWASTRHTGVPDRFSGSGSGTDFTLKISRVEAEDVGVYYCQQYSRYPWTFGQGTKL | 236 nM |
| h317 variant antibody, heavy chain D100E (antibody, V domains shown, Variant of h317) VH: EVQLVESGGGLVKPGGSLRLSCAASGFTFSSYDMSWVRQAPGKGLEWVATISGGGSYTYYPDSVKGRFTISRDNAKNSLYLQMNSLRAEDTAVYYCASPESSGVAYWGQGTLVTVSS VL: DIVMTQSPLSLPVTPGEPASITCKASQDVETVVAWYLQKPGQSPRLLIYWASTRHTGVPDRFSGSGSGTDFTLKISRVEAEDVGVYYCQQYSRYPWTFGQGTKL | 74.4 nM |
| h317 variant antibody, heavy chain D33S and Y59A (antibody, V domains shown, Variant of h317; also called 33S(CDRH 59A(CDR2))) VH: EVQLVESGGGLVKPGGSLRLSCAASGFTFSSYSMSWVRQAPGKGLEWVATISGGGSYTAYPDSVKGRFTISRDNAKNSLYLQMNSLRAEDTAVYYCASPDSSGVAYWGQGTLVTVSS VL: DIVMTQSPLSLPVTPGEPASITCKASQDVETVVAWYLQKPGQSPRLLIYWASTRHTGVPDRFSGSGSGTDFTLKISRVEAEDVGVYYCQQYSRYPWTFGQGTKL | 3.96 nM |

Next, values leading:

| Kd | Binder |
| --- | --- |
| 61.2 nM | h317 variant antibody, heavy chain Y57T (antibody, V domains shown, Variant of h317) VH: EVQLVESGGGLVKPGGSLRLSCAASGFTFSSYDMSWVRQAPGKGLEWVATISGGGSTTYYPDSVKGRFTISRDNAKNSLYLQMNSLRAEDTAVYYCASPDSSGVAYWGQGTLVTVSS VL: DIVMTQSPLSLPVTPGEPASITCKASQDVETVVAWYLQKPGQSPRLLIYWASTRHTGVPDRFSGSGSGTDFTLKISRVEAEDVGVYYCQQYSRYPWTFGQGTKL |
| 2.68 nM | h317 variant antibody, heavy chain G54S and Y59A (antibody, V domains shown, Variant of h317; also called 54S(CDR2) 59A(CDR2)) VH: EVQLVESGGGLVKPGGSLRLSCAASGFTFSSYDMSWVRQAPGKGLEWVATISGSGSYTAYPDSVKGRFTISRDNAKNSLYLQMNSLRAEDTAVYYCASPDSSGVAYWGQGTLVTVSS VL: DIVMTQSPLSLPVTPGEPASITCKASQDVETVVAWYLQKPGQSPRLLIYWASTRHTGVPDRFSGSGSGTDFTLKISRVEAEDVGVYYCQQYSRYPWTFGQGTKL |
| 16.3 nM | h317 variant antibody, heavy chain S101A (antibody, V domains shown, Variant of h317) VH: EVQLVESGGGLVKPGGSLRLSCAASGFTFSSYDMSWVRQAPGKGLEWVATISGGGSYTYYPDSVKGRFTISRDNAKNSLYLQMNSLRAEDTAVYYCASPDASGVAYWGQGTLVTVSS VL: DIVMTQSPLSLPVTPGEPASITCKASQDVETVVAWYLQKPGQSPRLLIYWASTRHTGVPDRFSGSGSGTDFTLKISRVEAEDVGVYYCQQYSRYPWTFGQGTKL |
| 18.1 nM | h317 variant antibody, heavy chain Y32N (antibody, V domains shown, Variant of h317) VH: EVQLVESGGGLVKPGGSLRLSCAASGFTFSSNDMSWVRQAPGKGLEWVATISGGGSYTYYPDSVKGRFTISRDNAKNSLYLQMNSLRAEDTAVYYCASPDSSGVAYWGQGTLVTVSS VL: DIVMTQSPLSLPVTPGEPASITCKASQDVETVVAWYLQKPGQSPRLLIYWASTRHTGVPDRFSGSGSGTDFTLKISRVEAEDVGVYYCQQYSRYPWTFGQGTKL |
| 3.29 nM | h317 variant antibody, heavy chain Y59A (antibody, V domains shown, Variant of h317) VH: EVQLVESGGGLVKPGGSLRLSCAASGFTFSSYDMSWVRQAPGKGLEWVATISGGGSYTAYPDSVKGRFTISRDNAKNSLYLQMNSLRAEDTAVYYCASPDSSGVAYWGQGTLVTVSS VL: DIVMTQSPLSLPVTPGEPASITCKASQDVETVVAWYLQKPGQSPRLLIYWASTRHTGVPDRFSGSGSGTDFTLKISRVEAEDVGVYYCQQYSRYPWTFGQGTKL |
| 9.09 nM | h317 variant antibody, heavy chain G55S (antibody, V domains shown, Variant of h317) VH: EVQLVESGGGLVKPGGSLRLSCAASGFTFSSYDMSWVRQAPGKGLEWVATISGGSSYTYYPDSVKGRFTISRDNAKNSLYLQMNSLRAEDTAVYYCASPDSSGVAYWGQGTLVTVSS VL: DIVMTQSPLSLPVTPGEPASITCKASQDVETVVAWYLQKPGQSPRLLIYWASTRHTGVPDRFSGSGSGTDFTLKISRVEAEDVGVYYCQQYSRYPWTFGQGTKL |
| 18.9 nM | h317 variant antibody, heavy chain Y59T (antibody, V domains shown, Variant of h317) VH: EVQLVESGGGLVKPGGSLRLSCAASGFTFSSYDMSWVRQAPGKGLEWVATISGGGSYTTYPDSVKGRFTISRDNAKNSLYLQMNSLRAEDTAVYYCASPDSSGVAYWGQGTLVTVSS VL: DIVMTQSPLSLPVTPGEPASITCKASQDVETVVAWYLQKPGQSPRLLIYWASTRHTGVPDRFSGSGSGTDFTLKISRVEAEDVGVYYCQQYSRYPWTFGQGTKL |
| 27.2 nM | h317 variant antibody, heavy chain S52K (antibody, V domains shown, Variant of h317) VH: EVQLVESGGGLVKPGGSLRLSCAASGFTFSSYDMSWVRQAPGKGLEWVATIKGGGSYTYYPDSVKGRFTISRDNAKNSLYLQMNSLRAEDTAVYYCASPDSSGVAYWGQGTLVTVSS VL: DIVMTQSPLSLPVTPGEPASITCKASQDVETVVAWYLQKPGQSPRLLIYWASTRHTGVPDRFSGSGSGTDFTLKISRVEAEDVGVYYCQQYSRYPWTFGQGTKL |
| 148 nM | h317 variant antibody, heavy chain S56G (antibody, V domains shown, Variant of h317) VH: EVQLVESGGGLVKPGGSLRLSCAASGFTFSSYDMSWVRQAPGKGLEWVATISGGGGYTYYPDSVKGRFTISRDNAKNSLYLQMNSLRAEDTAVYYCASPDSSGVAYWGQGTLVTVSS VL: DIVMTQSPLSLPVTPGEPASITCKASQDVETVVAWYLQKPGQSPRLLIYWASTRHTGVPDRFSGSGSGTDFTLKISRVEAEDVGVYYCQQYSRYPWTFGQGTKL |
| 1.32 nM | h317 variant antibody, heavy chain G54S (antibody, V domains shown, Variant of h317) VH: EVQLVESGGGLVKPGGSLRLSCAASGFTFSSYDMSWVRQAPGKGLEWVATISGSGSYTYYPDSVKGRFTISRDNAKNSLYLQMNSLRAEDTAVYYCASPDSSGVAYWGQGTLVTVSS VL: DIVMTQSPLSLPVTPGEPASITCKASQDVETVVAWYLQKPGQSPRLLIYWASTRHTGVPDRFSGSGSGTDFTLKISRVEAEDVGVYYCQQYSRYPWTFGQGTKL |
| 6.83 nM | h317 variant antibody, heavy chain Y32A (antibody, V domains shown, Variant of h317) VH: EVQLVESGGGLVKPGGSLRLSCAASGFTFSSADMSWVRQAPGKGLEWVATISGGGSYTYYPDSVKGRFTISRDNAKNSLYLQMNSLRAEDTAVYYCASPDSSGVAYWGQGTLVTVSS VL: DIVMTQSPLSLPVTPGEPASITCKASQDVETVVAWYLQKPGQSPRLLIYWASTRHTGVPDRFSGSGSGTDFTLKISRVEAEDVGVYYCQQYSRYPWTFGQGTKL |
| 39.4 nM | h317 variant antibody, heavy chain S52W (antibody, V domains shown, Variant of h317) VH: EVQLVESGGGLVKPGGSLRLSCAASGFTFSSYDMSWVRQAPGKGLEWVATIWGGGSYTYYPDSVKGRFTISRDNAKNSLYLQMNSLRAEDTAVYYCASPDSSGVAYWGQGTLVTVSS VL: DIVMTQSPLSLPVTPGEPASITCKASQDVETVVAWYLQKPGQSPRLLIYWASTRHTGVPDRFSGSGSGTDFTLKISRVEAEDVGVYYCQQYSRYPWTFGQGTKL |
| 5.12 nM | h317 variant antibody, heavy chain S31D (antibody, V domains shown, Variant of h317) VH: EVQLVESGGGLVKPGGSLRLSCAASGFTFSDYDMSWVRQAPGKGLEWVATISGGGSYTYYPDSVKGRFTISRDNAKNSLYLQMNSLRAEDTAVYYCASPDSSGVAYWGQGTLVTVSS VL: DIVMTQSPLSLPVTPGEPASITCKASQDVETVVAWYLQKPGQSPRLLIYWASTRHTGVPDRFSGSGSGTDFTLKISRVEAEDVGVYYCQQYSRYPWTFGQGTKL |
